Patent US20260285989 (published 2026)
Residue numbers refer to the chain shown, from its start.

B1: hzR1-C7-hFc (antibody, V domains shown)
VH: EVQLVESGGGLVQPGGSLRLSCAASGNLYRDPCMGWFRQAPGKDREGVAAMNTGADSTFYARSVKGRFTISRDNAKNTLYLQMNSLRAEDTAVYYCAASRYCTERTYTWRYDYDYWGQGTLVTVSS
B2: hzR1-F9-hFc (antibody, V domains shown)
VH: EVQLVESGGGLVQPGGSLRLSCAASGFTVHDMGWYRQAPGKECELVSTISSDASTYYADSVKGRFTISRDNAKNTLYLQMNSLRAEDTAVYYCAADSFTGLQLAECKADFGYWGQGTLVTVSS
B3: Rap-C10-hFc (antibody, V domains shown)
VH: QVQLQESGGGSVQPGGSLRLSCAASGFTYIPAYMGWFRQAPGKERERVASISSTDGSTTYADSVKGRFTVSQDTAKNTLYLQMNSLKPEDTAMYYCAAYQFGAFRVWGQGTQVTVSS
B4: R1-C10-hFc (antibody, V domains shown)
VH: QVQLQESGGGSVQAGETLRLSCTASGSTFDEYDMGWYRQAPGNKCELVSTISTIDGSTYYADSVKGRFTISQDNTKNTVYLQMNSLKPEDTGVYYCEADDRGTWDRGGCWGQGTQVTVSS
B5: R1-C7-hFc (antibody, V domains shown)
VH: QVQLQESGGGPVQAEGSLRLSCTASGNLYRDPCMGWFRQAPGKDREGVAAMNTGADSTFYARSVKGRFTISHDNAKNTLYLQMNSVKPEDTAMYYCAASRYCTERTWTWRYDYDYWGQGTQVTVSS
B6: hzR1-A12-hFc (antibody, V domains shown)
VH: EVQLVESGGGLVQPGGSLRLSCAASGTAYDNACMGWFRQAPGKEREGVASIHLRDRTYYADSVKGRFTISRDNSKNTLYLQMNSLRAEDTAVYYCASSNICNALNLQGNTYWGQGTLVTVSS
B7: Rap-F11-hFc (antibody, V domains shown)
VH: QVQLQESGGGSVQPGGSLRLSCAASGFTYIPAYMGWFRQAPGKERERVASIKTDGSTTYADSVNGRFTIAQDTAKNTLYLQMDSLKPEDTAMYYCAAYQFGAFRVWGQGTQVTVSS
B8: R1-A12-hFc (antibody, V domains shown)
VH: QVQLQESGGGPVQAGGSLRLSCSASTTAYDNACMGWFRQAPGKEREGVASIHLRDRTYYADSVKGRFTLSRDGASKTLYLQMNSLKPEDSGTYYCASSNICNGLNLQGNTYWGQGTQVTVSS
B9: hzRap-F11-hFc (antibody, V domains shown)
VH: EVQLVESGGGLVQPGGSLRLSCAASGFTYIPAYMGWFRQAPGKERERVASIKTDASTTYADSVEGRFTISQDNAKNTLYLQMNSLRPEDTAVYYCAAYQFGAFRVWGQGTLVTVSS
B10: hzRap-C10-hFc (antibody, V domains shown)
VH: B3 VH with Q1E, Q5V, S11L, D55E, V70I, T74N, A75S, K87R, M93V, Q112L
B11: R1-F9-hFc (antibody, V domains shown)
VH: QVQLQESGGGSVQAGETLRLSCTASGFTVHDMGWYRQAPGNECELVSTISSDGSTYYADSVKGRFTISQDNAKNTVYLQMNSLKPEDTAVYYCAADHFTGLQLAECKADFGYWGQGTQVTVSS
B12: Rap-A10-hFc (designed binder)
chain: QVQLQESGGGLVQAGGSLKLSCAASGYTYGPYCMGWFRQFPGKEREGVAAVGGDGRTWYGNSVKGRFTISQDNAKKTLYLQINALKPEDTAMYYCAADFDRTVCSDDIYDYTYRGQGTQVTVSS
B13: hzRap-A10-hFc (designed binder)
chain: EVQLLESGGGLVQPGGSLRLSCAASGYTYGPYCMGWFRQAPGKEREGVAAVGGDARTWYGNSVKGRFTISRDNSKNTLYLQMNSLRAEDTAVYYCAADFDRTVCSDDIYDYTYRGQGTLVTVSS
B14: hzR1-C10-hFc (antibody, V domains shown)
VH: EVQLVESGGGLVQPGGSLRLSCAASGSTFDEYDMGWYRQAPGGKCELVSTISTIDASTYYADSVKGRFTISRDNSKNTLYLQMNSLRAEDTAVYYCEADDRGTWDRGGCWGQGTLVTVSS

Tests used:
IL-18R1 ECD-His = biological target: T1, IL-18R1 ECD-His (human); test: BLI
T1 chain: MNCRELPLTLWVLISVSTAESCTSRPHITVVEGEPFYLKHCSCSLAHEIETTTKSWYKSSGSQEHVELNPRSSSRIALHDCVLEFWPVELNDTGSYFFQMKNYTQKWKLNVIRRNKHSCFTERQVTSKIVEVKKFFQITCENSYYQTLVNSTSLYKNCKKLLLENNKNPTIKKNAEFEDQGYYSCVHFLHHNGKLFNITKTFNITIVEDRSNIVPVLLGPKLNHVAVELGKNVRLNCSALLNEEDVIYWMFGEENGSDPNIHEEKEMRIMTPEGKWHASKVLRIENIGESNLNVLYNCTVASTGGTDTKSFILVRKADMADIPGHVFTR

IL-18RAP ECD-His = biological target: T2, IL-18RAP ECD-His (human); test: BLI
T2 chain: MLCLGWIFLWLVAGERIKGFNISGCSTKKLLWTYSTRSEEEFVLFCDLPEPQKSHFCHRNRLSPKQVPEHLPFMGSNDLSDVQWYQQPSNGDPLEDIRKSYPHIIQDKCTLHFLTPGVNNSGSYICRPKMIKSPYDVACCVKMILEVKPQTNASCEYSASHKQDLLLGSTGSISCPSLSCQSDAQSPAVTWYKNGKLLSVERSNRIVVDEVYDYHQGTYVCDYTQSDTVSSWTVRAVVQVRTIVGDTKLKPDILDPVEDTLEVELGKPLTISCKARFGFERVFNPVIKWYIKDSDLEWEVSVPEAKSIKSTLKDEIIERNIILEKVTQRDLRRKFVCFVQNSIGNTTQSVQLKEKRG

Binder | Kd (IL-18R1 ECD-His) [nM] | Kd (IL-18RAP ECD-His) [nM]
B1 | 2.53 | 
B2 | 3.74 | 
B3 |  | 1.73
B4 | 0.0281 | 
B5 | 2.56 | 
B6 | 2 | 
B7 |  | 4.58
B8 | 2.82 | 
B9 |  | 4.85
B10 |  | 6.24
B11 | 1.1 | 
B12 |  | 0.53
B13 |  | 0.986
B14 | 1.45 | 
